The target of test [1] is wild-type non-luminescent polypeptide (Oplophorus gracilirostris, UniProt Q9GV45, A31E/A60N/A81I/F95D/I117V/K70R/L54V/L99Q/M102K/P142E/Q151K/Q38R/Q45L/V71I/Y165I). The test is described as follows: NLpep mutant luminescence with wild-type NLpoly lysate (Examples 7, 8, 12, 13). As to conditions: mutations based on alignment to fatty acid binding proteins.
Test [2] has as its target 5P (Oplophorus gracilirostris, UniProt Q9GV45, A31E/A60N/A81I/D135N/F95D/G42A/G62A/G78A/G94A/G98A/I117V/K70R/L176M/L54V/L99Q/M102K/N171T/P142E/Q151K/Q38E/Q45L/V71I/Y165I). The test is described as follows: Titration of 5P with NLpep88-HT (Example 47). It is filed as biochemical. To be noted: lower concentrations of NLpep88.
The target of test [3] is 11S (Oplophorus gracilirostris, UniProt Q9GV45, A31E/A60N/A81I/D135N/F58L/F95D/G42A/G62A/G78A/G94A/G98A/H120P/I103V/I117V/I134L/K70R/L176M/L54V/L73R/L99Q/M102E/N171T/P142E/Q151K/Q38E/Q45L/V71I/Y165I). The test is described as follows: Substrate effect on 11S/NLpep79 Kd (Example 55). Format: binding. To be noted: saturating (50 uM) vs sub-saturating (5 uM) furimazine.
A short description of test [4]: Luminescence of NLpoly without NLpep (Example 57). Format: biochemical. As to conditions: E. coli clarified lysate, NanoGlo+Fz. As for the experimental part:
50 uL of each lysate and 50 uL NanoGlo+Fz were mixed and incubated for 5 min RT. Luminescence was measured on GloMax® Multi+ with 0.5 sec integration.

For test [5], the system named is NLpep78-HT or NLpep79-HT. The test is described as follows: NLpoly variant luminescence without NLpep, with NLpep78-HT or NLpep79-HT (Examples 62, 93). It is filed as biochemical. As to conditions: E. coli expression culture. The procedure:
Single NLpoly variant colonies were inoculated with 200 uL minimal media and grown for 20 hrs at 37° C. on a shaker. 10 uL of the overnight culture were diluted into 190 uL fresh minimal media and grown for 20 hrs at 37° C. on a shaker. 10 uL of this overnight culture was then diluted into 190 uL auto-induction media (previously described) and grown for 18 hrs at 25° C. on a shaker. 10 uL of this expression culture was mixed with 40 uL of assay lysis buffer (previously described) without NLpep or NLpep78-HT (1:3,860 dilution) or NLpep79-HT (1:10,000 dilution) and shaken for 10 min at RT. 50 uL of NanoGlo+Fz was added and again shake for 10 min at RT. Luminescence was measured on GloMax® luminometer with 0.5 sec integration. FIGS. 105-107 illustrate the luminescence of various NLpolys in the absence of NLpep.
A single colony of various NLpolys were inoculated individually into 200 uL minimal media and grown for 20 hrs at 37° C. on shaker. […] 10 uL of this overnight culture was diluted into 190 uL auto-induction media (previously described) and grow for 18 hrs at 25° C. on shaker. 10 uL of the expression culture was mixed with 40 uL of assay lysis buffer (previously described) without NLpep or with NLpep78-HT (1:3,860 dilution) or NLpep79-HT (1:10,000 dilution).

Test [6] deals with NLpep79. The test is described as follows: Substrate specificity of NLpoly 5P and 11S with NLpep79 (Example 97). Format: biochemical. As to conditions: with NLpep79, 11S compared with 5P. As for the experimental part:
E. coli clarified lysates were prepared for NLpoly 5P or 11S as described previously. The NLpoly lysates were then serially diluted in steps of 10-fold into PBS+0.1% Prionex.

The target of test [7] is T1, […] (Oplophorus gracilirostris, UniProt Q9GV45). The test is described as follows: Luminescence of non-luminescent polypeptide mutants upon complementation (Example 5, Table 4). To be noted: complementation with peptide […]; induced E. coli culture, NANOGLO reagent.
Test [8] addresses T1, […]. Described as above. To be noted: complementation with peptide […]; induced E. coli culture, NANOGLO reagent. The source holds these as a separate data set.

Sequence of wild-type non-luminescent polypeptide (Q9GV45 other isoform, or with tags, fused parts or gaps with the stated changes): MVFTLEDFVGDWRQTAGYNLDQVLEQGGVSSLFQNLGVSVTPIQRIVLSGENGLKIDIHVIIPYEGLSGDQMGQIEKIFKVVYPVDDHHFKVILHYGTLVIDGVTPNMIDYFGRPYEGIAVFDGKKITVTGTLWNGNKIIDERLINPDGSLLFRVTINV
Sequence of 5P (Q9GV45 other isoform, or with tags, fused parts or gaps with the stated changes): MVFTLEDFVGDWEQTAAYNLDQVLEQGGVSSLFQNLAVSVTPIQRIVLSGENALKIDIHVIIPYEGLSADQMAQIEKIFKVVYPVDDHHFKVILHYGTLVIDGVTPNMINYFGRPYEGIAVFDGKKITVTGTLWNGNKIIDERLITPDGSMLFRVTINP

Regarding DVTGWRLCERILA [NLpep2], the “activity (luminescence) of single-mutation NLpep with wild-type NLpoly” value (“activity (luminescence)” below) in test [1] is given as “retains/improves activity”.

Regarding GVTAWRLCERILA [NLpep3], in test [1], the “activity (luminescence)” value was “not likely to be tolerated”.

Take GVTGWRLCERISA [NLpep5]: in test [1], the “activity (luminescence)” value is on record as “retains/improves activity”.

Turning to GVTGWRLCKRILA [NLpep4], in test [1], the “activity (luminescence)” value is “retains/improves activity”.

Regarding NVSGWGLFKKISN [NLpep88], in test [2], the “luminescence of 5P titrated with NLpep88-HT” value is “no increase in luminescence above 5P alone”.

Take NVTGYRLFKKISN [NLpep79]: in test [3], the “affinity between 11S and NLpep79” value is listed as “increase the affinity”.

B1: 11S: NLpoly variant 11S (12S-51) (protein)
chain: MVFTLEDFVGDWEQTAAYNLDQVLEQGGVSSLLQNLAVSVTPIQRIVRSGENALKIDIHVIIPYEGLSADQMAQIEEVFKVVYPVDDHHFKVILPYGTLVIDGVTPNMLNYFGRPYEGIAVFDGKKITVTGTLWNGNKIIDERLITPDGSMLFRVTINS
Take B1: the “luminescence in the absence of NLpep relative to WT NLpoly” value in test [4] is ~500 fold. Moreover, in test [5], the “luminescence of NLpoly variant without NLpep or with NLpep78 or NLpep79” value is given as “improved luminescence over the other variants”. The “substrate specificity for furimazine” value in test [6] is given as “superior specificity for furimazine than 5P”.

B2: L149M (protein)
chain: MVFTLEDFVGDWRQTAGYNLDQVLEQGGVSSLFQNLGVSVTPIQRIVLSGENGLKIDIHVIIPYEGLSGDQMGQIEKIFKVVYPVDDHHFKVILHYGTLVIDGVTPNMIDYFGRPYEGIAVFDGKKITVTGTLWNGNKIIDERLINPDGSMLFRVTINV
Consider B2, for which the “luminescence relative to wild-type, RLU(mutant)/RLU(WT)” value in test [7] is 2.89 RLU(mutant)/RLU(WT); in test [8], 2.16 RLU(mutant)/RLU(WT).

For the origin of these results see US9797889B2, “Activation of bioluminescence by structural complementation” (Promega Corporation, priority 2013, dated 2017).
